Data taken from PMC6295060.
Each block holds one substance with its values, some of them ahead of it.

Columns and labels:
DMAP1 [1] = molecular target: DMAP1 (UniProt Q9NPF5); test: co-IP; conditions: reference: WT Bub3, mitotic arrest; sites S211
DMAP1 [2] = molecular target: DMAP1 (UniProt Q9NPF5); test: co-IP with anti-Flag antibody; conditions: reference: WT Flag-rBub3; sites S211
DMAP1 [3] = molecular target: DMAP1 (UniProt Q9NPF5); test: pull-down of His-Bub3 and GST-DMAP1; conditions: sites S211

binding against the reference (DMAP1 [1]): weaker
Substance: Bub3 (from UniProt O43684) Bub3 S211A, mitotic arrest

binding against the reference (DMAP1 [2]): lost
Substance: Bub3 (from UniProt O43684) Flag-rBub3 S211A

binding against the reference (DMAP1 [3]; reference: WT His-Bub3): lost
Substance: Bub3 (from UniProt O43684) His-Bub3 S211A

binding against the reference (DMAP1 [3]; reference: WT His-Bub3 without p38): gained
Substance: Bub3 (from UniProt O43684) WT His-Bub3 with purified p38
